Source: patent US8642834B2, “Methods for the identification of agents that inhibit mesenchymal-like tumor cells or their formation” (OSI Pharmaceuticals, LLC, priority 2009, dated 2014)

Tests used:
Format in all cases: cell-based, human
[1] = test system: CFPAC1 cells; assay: Transcriptional changes to EMT genes, qPCR
Protocol: The CFPAC1 cell line was cultured in DMEM media (Gibco #11960) supplemented with 10% FBS (Sigma), 2 mM L Glutamine (Gibco), at 37° C., 5% CO2. For 7 day treatments, cells were seeded on tissue culture plastic in complete growth media and allowed to attach overnight at cell densities that would provide approximately 60-80% confluence at end of experiment. Ligand and/or inhibitor was added the following day (Day 0) in complete growth media and incubated at 37° C., 5% CO2. Ligand source and concentrations used are as follows: [1] From R&D systems, SDF-1α (stromal derived factor-1 alpha) at 100 ng/ml, TRANCE (TNF-related activation induced cytokine) at 50 ng/ml, FGF1 (fibroblast growth factor acidic) at 10 ng/ml, FGF2 (fibroblast growth factor basic) at 10 ng/ml, BMP4 (bone morphogenetic protein 4) at 100 ng/ml, BMP7 (bone morphogenetic protein 7) at 100 ng/ml, IGF2 (insulin-like growth factor 2) at 100 ng/ml, OSM (Oncostatin M) at 100 ng/ml, NRG1 (Neuregulin-1) at 50 ng/ml, PDGFaa (Platelet derived growth factor a) at 50 ng/ml, PDGFbb (platelet derive growth factor b) at 30 ng/ml, Ang2 (Angiopoeitin 2) at 400 ng/ml, amphiregulin at 100 ng/ml, HMGB 1 (Human high-mobility group box 1 protein) at 50 ng/ml; [2] From Genscript, LIF (Leukemia inhibitory factor) at 20 ng/ml, GM-CSF (Granulocyte macrophage colony stimulating factor) at 25 ng/ml, M-CSF (Macrophage colony stimulating factor) at 50 ng/ml; [3] From Anaspec, PAR1 (Protease activated receptor 1 agonist) at 100 μM; PAR2 (Protease activated receptor 2 agonist; peptide SLIGKV-NH2, Cat. No. 60217-1) at 100 μM; PAR4 (Protease activated receptor […] agonist; peptide AYPGKF-NH2, Cat. No. 60218-1) at 100 μM; [4] From Peprotech, HGF (Hepatocyte Growth Factor) at 100 ng/ml; IL-31 (Interleukin-31) at 50 ng/ml, IL-33 (Interleukin-33) at 50 ng/ml, IL1-a (Interleukin-1 alpha) at 10 ng/ml, CTGF (Connective tissue growth factor) at 20 ng/ml, WISP1 (Wnt-1 inducible signaling pathway protein) at 20 ng/ml, PTHrP ([…] hormone-related protein) at 50 ng/ml, MCP1 (monocyte chemotactic protein-1) at 50 ng/ml; and [5] from Sigma, Fulvestrant at 1 μM. Fresh medium containing ligand and/or inhibitor was added 3-4 days after initial dose, and at Day 7 cells were harvested for western blot analysis.
Cells were plated and treated with ligand for one or 7 days. At the time of harvest, cells were trypsinized and snap frozen for later use. Total RNA was isolated using RNAqueous-4 PCR Kit (Ambion, AM1914). For qPCR on tumor material, the tumor samples were homogenized using a small tissue homogenizer (Ultra-Turrax T8 from IKA-Werke) in 175ul RNA lysis buffer. Homogenization was for 1 minute on ice. RNA was isolated using the SV Total RNA Isolation System (Promega Cat #Z3100) according to the manufactures instructions. Samples were DNase treated using the Turbo DNA-Free kit (Ambion, AM1907) and reverse transcribed using Superscript III (Invitrogen, 18080-044) for qPCR analysis. Taqman primers and Locked-Nucleic Acid probes were designed using ProbeFinder software (Universal Probe library, Roche). For mRNA analysis, real time PCR was performed using the ABI 7900HT series PCR machine. Thermocycle conditions were as follows: 50° C. for 2 minutes, 95° C. for 10 minutes, 95° C. for 15 seconds, 50° C. for 10 seconds, 60° C. for 1 minute. Data was collected over 45 cycles and then normalized to GAPDH and further normalized to the untreated control sample.

[2] = test system: CFPAC1 cells; assay: Doubling time after ligand treatment; conditions: after 7 day ligand treatment, versus untreated
Protocol: Cells were plated and treated with ligand for 7 days. On day 7, cells were counted and re-plated on 6 cm cell culture dishes. On days 3, 5, 7, 10 and 12, cells were trypsinized and counted to determine the total number of cells in the dish, in duplicate. Doubling time was calculated using the multiple time point method on the website www.doubling-time.com.

[3] = test system: CFPAC1 cells; assay: 2D immunofluorescence of E-cadherin and vimentin; conditions: cells treated 7 days with ligand, compared to untreated cells
Protocol: Cells were plated on coverslips and stimulated with ligand the following day (day 0). On day 4, medium and ligands were refreshed. After 7 days, the cells were fixed in 4% paraformaldehyde (EMS#15701)/PBS (Gibco #14190) for 10 minutes at room temperature, and then permeabilized in 0.1% Triton X-100 (Sigma #P1379)/PBS for 10 minutes. Cells were blocked in 3% BSA/PBS for one hour and incubated in primary antibody solution (E-cadherin, Santa Cruz #sc21791 and Vimentin, Chemicon #AB5733 in blocking buffer) for two hours at room temperature. Cells were washed in PBS and incubated in secondary antibody (Invitrogen #A11029 and Chemicon #AP194R) for one hour followed by nuclear counterstain TO-PRO3 (Invitrogen #T3605). Coverslips were mounted on slides with Pro-Long Gold antifade reagent (Invitrogen P36934). Images were captured on a Leica DMRXE microcope with SP2 scanner using Leica Confocal Software.

B1: OSM: Oncostatin M from R&D systems, used at 100 ng/ml (protein, UniProt P13725 26-221, looked up)
Oncostatin-M: AAIGSCSKEYRVLLGQLQKQTDLMQDTSRLLDPYIRIQGLDVPKLREHCRERPGAFPSEETLRGLGRRGFLQTLNATLGCVLHRLADLEQRLPKAQDLERSGLNIEDLEKLQMARPNILGLRNNIYCMAQLLDNSDTAEPTKAGRGASQPPTPTPASDAFQRKLEGCRFLHGYHRFMHSVGRVFSKWGESPNRSRR
ACTN1 mRNA fold change ([1]; ligand 1 Day): NC (Only changes greater than 3 fold are reported. NC indicates no change.) | CDH1 mRNA fold change ([1]; ligand 1 Day): NC (Only changes greater than 3 fold are reported. NC indicates no change.) | CDH2 mRNA fold change ([1]; ligand 1 Day): NC (Only changes greater than 3 fold are reported. NC indicates no change.) | ITGB3 mRNA fold change ([1]; ligand 1 Day): 31.39 fold | MMP7 mRNA fold change ([1]; ligand 1 Day): NC (Only changes greater than 3 fold are reported. NC indicates no change.) | MTA3 mRNA fold change ([1]; ligand 1 Day): NC (Only changes greater than 3 fold are reported. NC indicates no change.) | PLAUR mRNA fold change ([1]; ligand 1 Day): NC (Only changes greater than 3 fold are reported. NC indicates no change.) | SNAI1 mRNA fold change ([1]; ligand 1 Day): NC (Only changes greater than 3 fold are reported. NC indicates no change.) | SNAI2 mRNA fold change ([1]; ligand 1 Day): NC (Only changes greater than 3 fold are reported. NC indicates no change.) | SPARC mRNA fold change ([1]; ligand 1 Day): NC (Only changes greater than 3 fold are reported. NC indicates no change.) | TWIST1 mRNA fold change ([1]; ligand 1 Day): NC (Only changes greater than 3 fold are reported. NC indicates no change.) | VIM mRNA fold change ([1]; ligand 1 Day): NC (Only changes greater than 3 fold are reported. NC indicates no change.) | ZEB1 mRNA fold change ([1]; ligand 1 Day): NC (Only changes greater than 3 fold are reported. NC indicates no change.) | ZEB2 mRNA fold change ([1]; ligand 1 Day): 3.52 fold | ACTN1 mRNA fold change ([1]; ligand 7 Day): NC (Only changes greater than 3 fold are reported. NC indicates no change.) | CDH1 mRNA fold change ([1]; ligand 7 Day): −3.06 fold | CDH2 mRNA fold change ([1]; ligand 7 Day): NC (Only changes greater than 3 fold are reported. NC indicates no change.) | ITGB3 mRNA fold change ([1]; ligand 7 Day): 106.2 fold | MMP7 mRNA fold change ([1]; ligand 7 Day): NC (Only changes greater than 3 fold are reported. NC indicates no change.) | MTA3 mRNA fold change ([1]; ligand 7 Day): NC (Only changes greater than 3 fold are reported. NC indicates no change.) | PLAUR mRNA fold change ([1]; ligand 7 Day): NC (Only changes greater than 3 fold are reported. NC indicates no change.) | SNAI1 mRNA fold change ([1]; ligand 7 Day): NC (Only changes greater than 3 fold are reported. NC indicates no change.) | SNAI2 mRNA fold change ([1]; ligand 7 Day): NC (Only changes greater than 3 fold are reported. NC indicates no change.) | SPARC mRNA fold change ([1]; ligand 7 Day): −33 fold | TWIST1 mRNA fold change ([1]; ligand 7 Day): 3.3 fold | VIM mRNA fold change ([1]; ligand 7 Day): NC (Only changes greater than 3 fold are reported. NC indicates no change.) | ZEB1 mRNA fold change ([1]; ligand 7 Day): 3.00 fold | ZEB2 mRNA fold change ([1]; ligand 7 Day): 13.7 fold | Increase of doubling time [2]: approximately 50% | E-cadherin and vimentin staining [3]: strong vimentin staining with no E-cadherin
